This test has as its target T1, human ROR1 (human, UniProt Q01973 30-403, limits assumed).
T1 construct: also called receptor tyrosine kinase-like orphan receptor 1
As to the kind of experiment: affinity for human ROR1, method not stated.

Changes are numbered by the printed parent chain.

What is called Kd is the equilibrium constant for the complex coming apart.

T1 sequence (Q01973 30-403 limits assumed): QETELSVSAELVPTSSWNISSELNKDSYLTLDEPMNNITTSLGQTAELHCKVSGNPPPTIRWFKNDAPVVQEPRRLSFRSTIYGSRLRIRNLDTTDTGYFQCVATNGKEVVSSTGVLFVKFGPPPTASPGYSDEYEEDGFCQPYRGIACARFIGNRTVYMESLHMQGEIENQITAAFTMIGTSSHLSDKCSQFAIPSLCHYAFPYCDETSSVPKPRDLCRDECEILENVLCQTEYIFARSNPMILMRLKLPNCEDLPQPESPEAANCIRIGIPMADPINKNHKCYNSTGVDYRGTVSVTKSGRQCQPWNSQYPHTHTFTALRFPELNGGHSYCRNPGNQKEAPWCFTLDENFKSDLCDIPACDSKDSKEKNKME

B1: anti-ROR1 antibody clone C3 (antibody, V domains shown)
VH: QVQLQESGPGLVKPSETLSLTCTVSGGSISSYYWSWIRQLPGKGLEWIGYMHYSGSTSYNPSLKGRLTISVDTSTNQFSLKLGSVTAADTAVYYCARYYYHDSSGYYSYFDYWGQGTLVTVSS
VL: EIVLTQSPGTLSLSPGERATLSCRASQSVSSYLAWYQQKAGQAPRLLIYDASNRASGIPARFSGSGSGTDFTLTISSLEPEDFAVYYCQQRSNWPPTFGGGTKVEIK
notes: Fully human clone from a naive phage library
The molecule B1 registered a dissociation constant (Kd) of 3.25 nM.

B2: anti-ROR1 antibody clone G3 (antibody, V domains shown)
VH: QVQLQQWGAGLLKPSETLSLTCAVYGGSFSGYYWSWIRQPPGKGLEWIGEINHSGSTSYNPSLKSRVTISVDTSKNQFSLKLSSVTAADTAVYYCARGHSSGWYRRYFDLWGRGTLVTVSS
VL: B1 VL with G9A, A40P, S56T, R61K
notes: as for B1
Regarding B2, the Kd is 4.48 nM.

B3: anti-ROR1 antibody clone G6 (antibody, V domains shown)
VH: EVQLVESGGGVVQPGGSLRLSCAASGFTFDDYAMHWVRQAPGKGLEWVSLISGDGGSTYYADSVKGRFTISRDNAKNSLYLQMNSLRAEDTAVYYCARDNWNDVYYYYGMDVWGQGTTVTVSS
VL: DIQLTQSPSSLSASIGDTVTISCQASRDISDYLNWYQHKPGKAPKLLIYDASNLATGVPSRFSGSGSGTDFTLTIKSLQPEDVATYFCQQDDLLPLTFGGGTKVDIK
notes: as for B1
As to B3, binding was characterised by a dissociation constant (Kd) of 43.7 nM.

The values are drawn from US20220356247A1 (NANJING IMMUNOPHAGE BIOTECH, published 2022).
